# Experimental data reported in the supplement of paper PMC10126150.
# ± gives the standard deviation of the averaged measurements.
# System: ATP
# Experiment: switch fluorescence ratio, 500 uM ATP over buffer (Cy3 cluster intensity, sum of 5 cycles each) (fold (ratio)); higher = stronger signal-on switching upon ATP binding; sequences stand for … in TCGTCGGCAGCGTCAGATGTGTATAAGAGACAGTTTTTTTTTTTTTTTTTTTTTTTTT…TC
# Conditions: aptamer strand: ATP DNA aptamer (quencher-CACCTGGGGGAGTATTGCGGAGGAAGG + anchor), 100 nM annealed; ATP concentration: 500 uM
# How it was run: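 Per cluster, summed Cy3 intensity from the target cycles was divided by that from the buffer cycles to give the fluorescence ratio, then averaged per switch-domain sequence. Clusters outside 100-1000 RFU were excluded. The Cy3-labelled switching-strand clusters, on a modified Illumina MiSeq flow-cell, were annealed to 100 nM quencher-labelled ATP aptamer and imaged in selection buffer, then after 15 min with 500 uM ATP at 22 °C, for five cycles with NaOH stripping and re-annealing between them.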
# 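Note: ATP exposure 15 min at 22 °C before imaging.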
row,Sequence,switch fluorescence ratio
1,TGTTGCGGAT,1.24 ± 0.29
2,TTTAAAATTT,1.01 ± 0.041
3,GAAATACTTT,1.03 ± 0.014
4,TTTTTTCTAT,0.996 ± 0.067
5,TAGGTCTGTG,0.987 ± 0.014
6,TAGTTTTTTG,0.993 ± 0.053
7,TTGCAGTAAT,1.87 ± 1.1
8,GGGTTCCGGC,1.03 ± 0.098
9,TGGGGGTGAA,1.02 ± 0.018
10,CAGGTCGACT,0.972 ± 0.03
11,TTTCCGTTTC,1.06 ± 0.04
12,GTTAGTCTGT,0.9907 ± 0.0052
13,TTAAGGTTTA,1.02 ± 0.038
14,CAGGAATAGC,1.25 ± 0.044
15,AATTGAAAAG,0.982 ± 0.027
16,TTTGATGGCT,1.02 ± 0.039
17,TTGGGCCCGG,0.9878 ± 0.0073
18,GGGGAGTCTT,0.972 ± 0.057
19,AATATTCTGT,0.9923 ± 0.0029
20,TAAAAATCTT,1.01 ± 0.041
21,GTTCGGATGG,1.015 ± 0.0032
22,TGTAAAAAT,1.01 ± 0.042
23,GGGAAAGATA,0.988 ± 0.021

row,Sequence,switch fluorescence ratio
1,CGCCGGGGAT,1.004 ± 0.002
2,TCCTCGGGGG,0.989 ± 0.027
3,ATGTGTAAAC,1.01 ± 0.038
4,TGCGGGTGTG,1.03 ± 0.021
5,GACGGGGAGA,1.06 ± 0.038
6,TTCTAAAGAT,0.969 ± 0.034
7,TCCCATATAT,1.09 ± 0.014
8,TGGGCGGGGC,0.998 ± 0.018
9,GGGTTGGGAT,0.995 ± 0.021
10,GACACACCCG,1.13 ± 0.046
11,TTTATGATGG,1.01 ± 0.052
12,TAGAAGGGCA,0.988 ± 0.015
13,TGTTTTCGTG,0.985 ± 0.015
14,TAAAAGGGTT,1 ± 0.031
15,TTTAAATTG,1 ± 0.05
16,CGACGAAACT,1.15 ± 0.021
17,TACCGCGTGG,1.03 ± 0.017
18,TCAGTTTGAG,0.97806 ± 0.0007
19,AGTTTGATG,0.986 ± 0.041
20,TACGTGGTGG,1.05 ± 0.024
21,TAGAGGGTTG,0.969 ± 0.02
22,TTTGGATGGT,0.996 ± 0.02
23,TTGGAGTGTT,0.999 ± 0.026

row,Sequence,switch fluorescence ratio
1,TAAGAGTACT,1.008 ± 0.0019
2,TTGCAATTCG,3.05 ± 2.5
3,AGCGTTTAGA,0.989 ± 0.011
4,AAATTACAGT,0.99493 ± 0.00079
5,TATAGAAATA,0.998 ± 0.017
6,AGCGACGGTT,0.982 ± 0.016
7,GGTACGGAAA,1.02 ± 0.016
8,GGGTTGCTGT,1.03 ± 0.1
9,TGGGGTGCAG,1.03 ± 0.017
10,CGTGGTTTGT,0.9874 ± 0.0051
11,TATTTTTCTT,0.975 ± 0.041
12,TTTAGGGATG,0.989 ± 0.0088
13,ATTTTCGGCG,1.001 ± 0.0054
14,TCAATAGAGT,1.039 ± 0.0024
15,AGGGTTAATG,1.05 ± 0.017
16,AGGGGAATGT,0.979 ± 0.026
17,AGGGTTATTG,1.01 ± 0.047
18,ACCAAGTTCA,1.02 ± 0.014
19,TGAGGGGGCG,1.03 ± 0.11
20,GGTTGTGGGG,0.998 ± 0.035
21,GCTTTAACAC,1.03 ± 0.014
22,CCAACGGGGG,1.061 ± 0.0019
23,TGAGGGGCAG,0.984 ± 0.013

row,Sequence,switch fluorescence ratio
1,CACGGCGACA,1.15 ± 0.027
2,TGATTTAATA,0.984 ± 0.025
3,GGGACTTTGG,0.972 ± 0.018
4,TCTTATGTTA,0.989 ± 0.021
5,TCCTTTAAGA,0.998 ± 0.036
6,TATGTCTACA,0.9859 ± 0.0075
7,TGTGTTTTT,0.992 ± 0.038
8,AATTTTTGTG,0.988 ± 0.022
9,GTTGTGTTGT,0.979 ± 0.028
10,GGGTATCACG,1 ± 0.017
11,TCCGGGGTGC,2.36 ± 1
12,CGGGTTTTTT,0.988 ± 0.032
13,AAGAAGGGAG,0.982 ± 0.01
14,CCACTGTTGG,0.992 ± 0.029
15,ACACTTTTCG,1.01 ± 0.035
16,CAGAGAATTT,1.004 ± 0.0046
17,CGGGAGCG,1.03 ± 0.022
18,GGGGGACCTA,0.946 ± 0.026
19,ATCAGTGAGA,1.03 ± 0.032
20,GTATTAGTGT,1.006 ± 0.0073
21,TTTCACTTGT,1.034 ± 0.0018
22,TTTTAGTTT,0.996 ± 0.023
23,AGCAGTTCCG,1.02 ± 0.044

row,Sequence,switch fluorescence ratio
1,GCGTTTTTGG,0.998 ± 0.029
2,TTAGGGTGCA,1.01 ± 0.025
3,GCATTAGTAT,0.935 ± 0.044
4,TAATTTTGGT,0.9847 ± 0.0068
5,TGCTGCGCTT,1.14 ± 0.081
6,TTTCATAGTC,1 ± 0.025
7,TGTCAGTCGA,1.002 ± 0.0036
8,TCGGGCGTAT,1 ± 0.056
9,TTGACGTTGC,1.01 ± 0.033
10,TATGGGGCAG,0.99 ± 0.0093
11,CCATTTTGCC,0.9878 ± 0.00023
12,ATGGAAGGAT,1.005 ± 0.0065
13,TCAGTTATTT,1.04 ± 0.055
14,ACGACGGGGG,1.2 ± 0.23
15,GCGAGGTGCA,1.03 ± 0.055
16,AAATCAGGTT,0.972 ± 0.016
17,GATTTTTTAT,0.999 ± 0.058
18,ATGGGCTTCT,1.018 ± 0.0091
19,TGGGGGACGC,1.08 ± 0.045
20,TGGAGGATTG,0.991 ± 0.016
21,CAGTCTGGTA,0.9966 ± 0.0042
22,GGGGTATGTG,0.992 ± 0.039
23,CGTATAGGAG,1.02 ± 0.045

row,Sequence,switch fluorescence ratio
1,AACCAGTTTT,0.98 ± 0.027
2,AGACGATGAG,0.933 ± 0.026
3,TGTTGGTTTG,1.08 ± 0.14
4,CCACTGGGTA,1.054 ± 0.0042
5,CGAACGGGGG,1 ± 0.032
6,CAAACTAGC,0.99 ± 0.003
7,AGAAGCTGGG,1 ± 0.03
8,TTAAATCATA,0.99742 ± 0.00093
9,TTCGTTACAG,0.998 ± 0.027
10,ATTTACGAGT,0.981 ± 0.045
11,TAGAAAAGCA,0.997 ± 0.024
12,TACATGGGTA,0.9583 ± 0.0072
13,TGGCCGGCTG,1 ± 0.074
14,ATGGAACGGA,1.03 ± 0.027
15,GGGGCAGTGT,0.991 ± 0.042
16,TCCAAGGGCA,1.01 ± 0.015
17,AAATGGGAGA,0.992 ± 0.026
18,TAAATTAATC,1.01 ± 0.018
19,TTGACGGGAG,0.997 ± 0.027
20,TAAGTTGGTG,0.976 ± 0.018
21,AATTCGGGGG,1.04 ± 0.054
22,GAAGTTTTGG,0.996 ± 0.028
23,AGTCTTAAGG,0.9459 ± 0.003

row,Sequence,switch fluorescence ratio
1,CTTTTTAACA,0.9742 ± 0.0062
2,TCATCGCATG,1.3 ± 0.016
3,CTGGTCATCT,0.991 ± 0.011
4,TCGGCCGTCC,1.056 ± 0.009
5,CCGTGTATTT,1.05 ± 0.052
6,ATGGTCGGAT,0.9804 ± 0.0098
7,TAAAGGCGGG,0.987 ± 0.023
8,TCGTTATATT,0.98 ± 0.015
9,AGGCTTATCT,0.989 ± 0.025
10,TTCATGGGAG,0.99 ± 0.022
11,AGTTTGTGTC,0.965 ± 0.12
12,TATGTCAGCT,1.01 ± 0.032
13,AACTGGGGTA,0.977 ± 0.01
14,TCGACTATTA,1.05 ± 0.019
15,AAAGATTAAA,0.9918 ± 0.0056
16,TACGAATCTG,1.03 ± 0.019
17,TGCGAATTGT,1.01 ± 0.012
18,ATGCTGGTTA,0.996 ± 0.016
19,TATTGATAAA,0.991 ± 0.058
